Assay results: the nanobody polyreactivity screen of Harvey et al. (2022)

Assay: yeast display, Sf9 membrane polyspecificity reagent, FACS + sequencing; frameworks hold sequencing errors
Summary of the method: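 Nanobodies from a synthetic yeast display library (Saccharomyces cerevisiae BJ5465), induced 36–48 hours with galactose, were stained 1 hour at 4 °C with 10% biotinylated, detergent-solubilized Sf9 membrane reagent, enriched on streptavidin microbeads, then FACS-sorted. Anti-HA (expression) and streptavidin (reagent binding) fluorescence set low and high (top ~1%) gates. Polyreactivity labels come from the gate of origin. Genes were colony-PCR amplified, MiSeq 2 × 250 sequenced and filtered by CDR length.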

QVQLVESGGGLVQAGGSLRLSCAASGITFYRYMGWYRQAPGKERELVASITGRGGSTYYADSVKGRFTISRDNAKNTVYLQMNSLKPEDTAVYYCAARSYARPGGSRFDYWGQGTQVTVSS
polyreactivity (PSR sort gate): high polyreactivity

QVQLVESGGGLVQAGGSLRLSCAASGFTFLYNVMGWYRQAPGKERELVAAISQSGTDTYYADSVKGRFTISRDNAKNTVYLQKNSLKPEDTAVYYCATEYYSQPRDDYWGQGTQVTVSS
polyreactivity (PSR sort gate): low polyreactivity

QVQLVESGGGLVQAGVSLRLSCAASGRTFGYYAMGWYRPAPGKETELVAASTLSGGSTYYADSVKGRFTISRDNAKNTVYLQMNSLKPEYTAVYYCAAKWWHFYPYDYWGQGTQVTVSS
polyreactivity (PSR sort gate): high polyreactivity

QVQLVESGGGLVQAGGSLRLSCAASGSIFGWYAMGWYRQAPGKERELVAAIDSATSTDYADSVKGRFTISRDNAKNTVYLQMNSLKPEDTAFYYCAVYSCWIDAEYDYWGQGTQVTGSS
polyreactivity (PSR sort gate): low polyreactivity

QVQLVESGGGLVQAGGSLRLSSAASGLIFRHNAMGWYRQAPGKERELVAAISSTGGRTYYADSVKGRFTISRDNAKNTVYLQMNSLKPEDTAVYYCAARHTKALWSPQNGYYWGQGTQVTVSS
polyreactivity (PSR sort gate): high polyreactivity

QVQLVESGGGLVQAGGSLRLSCAASGRIFSLNAMGWYRQAPGKERELVAAISKRGGSTYYADSVKGRFTISRDNAKNTVYLQMNSLKPEDTAVYYCNKLGSLSGRYDYWGQGTQVTVSS
polyreactivity (PSR sort gate): high polyreactivity

QVQLEESGGGLVQAGGSLRLSCAASGRTFGTNAMGWYRQAPGKERELVAAITTNGGRTYYADSVKGRFTISRDNAKNTVYLQMNSLKPEDTAVYYCAKYYQTDTYIYDYWGQGTQVTVSS
polyreactivity (PSR sort gate): low polyreactivity

QVQLVESGGGLVQAGGSLRLSCPASGITFKGYTMGWYRQAPGKERELVATISRGGRTYADSVKGRFTISRDNAKKTFYLQMNSLKPEDTSVYYCAADKYWAQNDYWGQGTQVTVSS
polyreactivity (PSR sort gate): low polyreactivity

QVQLVESGGGLVQAGGSLRLSCAASGYIFSLYAMGWYRQAPGKERELVADITTSAGSTYYADSVKGRFTISRDNAKNTVYLQMNSLKPEDTAVYYCAADVYGHTYYDYDYWGQGTQVTVSS
polyreactivity (PSR sort gate): low polyreactivity

QVQLVESGGGLVQAGGSLRLICAASGRTFRYNAMGWYRQAPGKERELVASITSGGSTNYADSVKGRFTISRDHAKNTVYLQMNSLKPEDTAVYYCAKDHYYRYEDGDYWGQGTQVTVSS
polyreactivity (PSR sort gate): low polyreactivity

QVQLVESGGGLVQAGGSLRLSCAASGRIFRSNAMGWYRQAPGKERELVAAISQRGGSTYYADSVKGRFTISRDNAKNTVYLQINSLKPEDTAVYYCNARGRYYSGDNWGQGTQVTVSS
polyreactivity (PSR sort gate): high polyreactivity

QLHLVESGGGLVQAGGSLRLSCAGSGFTFGHSAMGWYRQAPGNDRELVASITWSGGSTYYADSVKGRFTISRDNAKNTVYLQMNSRKPEDTAVYYCNAQERRVRDYDYWGQGTQVTVSS
polyreactivity (PSR sort gate): low polyreactivity

QVQLVESGGGLVQAGGSLRLSCAASGRIFTWYTMGWYRQAPGKERELVAAINRGGSTTYADSVKGRFTISRDNAKNTVYLQMNSLKPEDTAVYSCAAYRYTSRVYSYWRGYDYWGQGTQVTVSS
polyreactivity (PSR sort gate): high polyreactivity

QFQLVESGGGLVQAGGSLRLSCAASGSTFGYYAMGWYSQAPGKERELVAAITSTGRTKYADSVKGRFTISRDNAKNSVYLQMNSLKPEDTAVYYCAADIWGQGTQVTVSS
polyreactivity (PSR sort gate): high polyreactivity

QVQLVESGGGLVQAGGSLRLSCASSGRIFQYYVKGWYRQAPGKERELVAAITSGGGTKYADSVKGRFTISRDNENNTVYLQMNSLKPEDTAVYYCAAAWFDQYSRYDYWGQGTQVTVSS
polyreactivity (PSR sort gate): low polyreactivity

QVQLVESGGGLVQAGGSLRLSCAASGRTLYGYAMGWYRQAPGKERELVAAISESDGSTYADSVKGRFTISRDNAKNTVYLQMNSLKPEDTAVYYCAADYYWYALQDGYYTYGYTYDYWGQGSQVTVSS
polyreactivity (PSR sort gate): low polyreactivity

QVQLVESGGGLVQAGGSLRLSCAASGRIFLVYAMGWYRQAPGKERELVAAISWRGGRTYYADSVKGRFTISRDNAKNTVYLQMNSLKPEDTAVYYCAAASKYSQFEYDYWGQGTQVTVSS
polyreactivity (PSR sort gate): high polyreactivity

QDQLEESGGGLVQAGGSLRLSCAASGNIFPRNAMGWYRQAAGKERELVAAISASGDNTYYADSVKGRFTISRDNAKNTVYLQMNSLKPEDTAVYYCSAGTFYESIQPYESVAYYYWGQGTQVTVSS
polyreactivity (PSR sort gate): low polyreactivity

QVQLVESGGGLVQAGGSLRLSCAASGFTFANPMGWYRQAPGKERELVAAISSGGGSTYYADSVKGRFTISRDNAKNTVYLQMNSLKPEDTAVYYCAAGYGTLDWWEDYWGQGTQVTVSS
polyreactivity (PSR sort gate): high polyreactivity

QVQLVESGGGLVQAGGSLRLSCAASGSIFYVNAMGWYRQAPGKERELVAAISVRGGRTYYADSVKGRFTISRDNAKNTVYLQMNSLKPEDTAVYYCAAKSVYKFGDDYWGQGTQVTVSS
polyreactivity (PSR sort gate): high polyreactivity

QVQLVESGGGLVQAGGSLRLSCAASGLIFGYYAMGWYRQAPGKERELVAAISSSGTRTYYADSVKGRFTISRDNAMNTVYLQMNSLKPEDTAVYYCNADSYGSRYEYWGQGTQVTVSS
polyreactivity (PSR sort gate): high polyreactivity

QVQLVESGGGLVQAGGSLRLSCAASGRTFGGNTMGWYRQAPGKERELVAAISFSGGSTYYADSVKGRFTISRDNAKNTVYLQMNSLKPEDTAVYYCAKDPITATTLDERVYYWGQGTQVTVSS
polyreactivity (PSR sort gate): low polyreactivity

QVQLVESGVGLVQAGGSLRLTCAASGSIFGRKAMGWYRKATGKERELVAAIRTRGGSTYYADSVKGRFTISRDNAKNTLYLQMNSLKPEDTAVFFCAAPGGGKVVDYWGQGTHVTVSS
polyreactivity (PSR sort gate): low polyreactivity

HVQLVESAGGLFQEGGSLRVSCAASGGTLNTYAMGRYRQAPGKDREFVSAITTSGASTYYADSVKGRFTISRDNAKNTVYLQMNSLKPEDSAVYYCYCDYWGQGTQVTVSS
polyreactivity (PSR sort gate): low polyreactivity

QVQLVESGGGLVQAGGSLRLSCAASGITYGRYTMGWYRQAPGKERELVAAITNGDITDYADSVKGRFTISRDNAKNTVYLQMNSLKPEDTAVYYCAALLLYQNDHWGQGTQVTVSS
polyreactivity (PSR sort gate): high polyreactivity

QVQVVESVGGLVHAGCSLRLSCAASGRTFISNAMGWYRQAPGKERELVATITYSDATTYYADSVKGRFTISRDNAKNTVYLQMNSLKPEDTAVYYCIAQSRSYDRYISAGRRYDYWGQGTQVTVSS
polyreactivity (PSR sort gate): low polyreactivity

QVQLVESGGGLVQAGGSLRLSCAASGRTIGQNAMGWYRQAPGKERELVAAISASGSNTYYADSVKGRFTISRDNAKNTVYLQMNSLKPEDTAVYYCAKQVYRPGQQSRYDYWGQGTQVTVSS
polyreactivity (PSR sort gate): low polyreactivity

QVQLVESGGGLVQAGGSLRLSCAASGSNFTLYAMGWYRPAPGKERELVAAISRRGDRTYYADSVKGRFTISRDNAKNTVYLQMNSLKPADTAVYSCNARRAPPLPYYYWGQGTQVTVSS
polyreactivity (PSR sort gate): high polyreactivity

QVQLVDSGGGLVQAGGILRLSCAASGRTFWIYAMGWYRQAPGKERQLVAAITGSGGSTYYADSVKGRFTISRDNAKNTGYLQMICLKPEDTAVYYCNARVPDCYKWSAYYSHDYWGQGTQVTVSS
polyreactivity (PSR sort gate): low polyreactivity

QVQLVESGGGLFQAGGSLRLSCAASGSIFYNYGMAWYRHAPGKERELVAAIRASGDSTYYADSVKGRFTISRDNAKNTVYLQMNSLKPEDTEVYYCAARPNQSYYGLYYYWGQGTQVTVSS
polyreactivity (PSR sort gate): low polyreactivity

QVQLEESGGGLVQAGGSLRLSSAASGRTLVHYAIGSYRQAPGKEREMVAAISIGGDSTYADSVKGRFTISRDNAKNTVYLQMNSLKPEDTAVYYCAASGWWDFFDPYFKFDYWGQGTQVTVSS
polyreactivity (PSR sort gate): low polyreactivity

QVQLVESGGGLVQAGGSLRLSCAASGSIFPHNAMGWYRQAPGKERVLVASITSRGGITYYADSVKGRFTISRDNAKNTVYLQMNSLKPEDTAVYYCAADLYIYPYDYWGQGTQVTVSS
polyreactivity (PSR sort gate): low polyreactivity

QVQLVESGGGLVQAGGSLRLSCAASGSIFGAYAMGWYRQAPGKERELVAAISSSVDRTYYADSVKGRFTNSRDNAKNTVYLQMNCLKPEDTAVYYCAARWGTRDRTKYYYWGQGTQVTVSS
polyreactivity (PSR sort gate): high polyreactivity

QVHLVESGGGLVQAGGSLRLSCAASGRTFATYALGWYRQAPGKERELVAAISSGGSTYYADSVKGRFTISRDNAKNTVYLQMNSLKPEDTAVYYCAAARKYYGYNYWGQGTQVTVSS
polyreactivity (PSR sort gate): high polyreactivity

QVHLVESGGGLVQAGCCLRLRCAASGRTYDAYAKAWYRQAPGKERELVAAISSGDITNYADSVKGRFTISRDHAKNTVYLQMNSLKPEDTAVYYCAAKPRLRFFLWHEYSSRYDYWGQGTQVTVSS
polyreactivity (PSR sort gate): high polyreactivity

QVQLVESGGGVVQAGGSLRLSCAGSGFTFIYYAMGWYRQAPGTERELVAAITTSRGRTDSADSVKGRVTISRDNAKNTVYLQMNSLKPEDTAVYYCNAVVYTKYYFIPWYPYDYWGHGTQVTVSS
polyreactivity (PSR sort gate): high polyreactivity

QVQLVESGARLVQAGGSLRLSCAASGSILGGNAMGWYRQPPGKERELVAAITFSGGGTYYADSVKGRFTISRDNAKNTVYLQMNSLKPEDTAVYYCAADIAGYTYEFDYWGQGTQLTVSS
polyreactivity (PSR sort gate): low polyreactivity

QVQLVESGGGLVQAGGTLRLSCAASGSTFVGYAMGWYRQAPGKERELVAAISSSGSTNYADSVKGRFTISRDNAKNTVYLQMNSLKPEDTAVYYCAALYSYFWLIIDYGYWGQGTQVTVSS
polyreactivity (PSR sort gate): low polyreactivity

QVQLVESGGGLVQAGGSLRLSCADSGIIFYVYAMGWYRPAPGKEREWVAAISSGGRTKYADSVKGRFTISRDNAKNTVYLQMNSLKPEDTAVYYCAAKSVRRRLGYWGQGTQVTVSS
polyreactivity (PSR sort gate): high polyreactivity

QVQLVESGGGLVQAGGSLRLSCAASGSTLAVYAMGSYRQAPGKERELVAAISKRGGTTYYADSVKGRFTISRDNAKNTVYLQMYSLKPDDTAVYYCARESYYRGNYDYDYWGQGTQVTVSS
polyreactivity (PSR sort gate): high polyreactivity

QVQLVESGGGLVQAGGSLRLSCAASGRTFVRYAMGWSRQAPGKERELVAAITKSGGSTSYADSVKGRFTISRDNAKNTVYLQMNSLKPEDTAVYYCATRGYYQRSSPMDYWGQGTQVTVSS
polyreactivity (PSR sort gate): high polyreactivity

QVQLVESGGGLVQAGGSLRLSCAASGSILGYYAMGWYRQAPGKERELVAAITASGGSTYYADSVKGRFTISRDNAKNTVYLQMNSLKPEDTAVYYCNADGGPGYPRAYDYWGQGTQVTVSS
polyreactivity (PSR sort gate): low polyreactivity

QVQLVESGGGLVQAGGSLRLSCAASGIISSVYAMGWYRQARGKERELVAAISGSGGSTYYADSVKGRFTISRDNAKNTVYLQMNSLKPEDTAVYYCAKGYQYQGNSYGYWGQGTQVTVSS
polyreactivity (PSR sort gate): low polyreactivity
